Read-outs that look alike come from different tables or passages of the source.
Columns and labels:
HIF-1a = HIF-1a (Homo sapiens, UniProt Q16665); settings: cited from earlier work
MBP317-347 = assay: Effect of beta-cyclodextrin on maltose activation of switch MBP317-347; format: biochemical
Method: The rate of beta-lactam hydrolysis as a function of maltose (dots) follows the maltose-binding isotherm (blue). […] Initially, in the absence of any ligand, the rate of beta-lactam hydrolysis catalyzed by the switch is low. At about 5 minutes, maltose is added and the enzyme activity of the switch is turned on. At about 10 minutes, an excess of beta-cyclodextrin is added. This replaces maltose in the binding site and turns the enzyme activity of the switch off. At about 16 minutes, an excess of maltose is added which replaces beta-cyclodextrin and turns the enzyme activity of the switch back on.
Natural allosteric proteins often have modest (<10-fold) differences in function between the effector-bound and effector-unbound states. However very large differences in activity between the two states would be advantageous for many applications of protein switches. […] Using an iterative strategy involving random circular permutation and random insertion several switches were created that approach being on/off in nature (6). […] The creation of these switches was facilitated by a new directed evolution algorithm for non-homologous recombination that was developed for efficiently exploring the sequence space comprised of the possible fusions of the two proteins. […]

GIA39 E. coli cells = assay: Growth on "negative selection" minimal plates supplemented with 5FC; format: cell-based; set-up: key: + = growth; − = no growth
Method: Minimal media was used in the selection schemes and was based on a product mixture described by Sigma. For 1 L it containing 20 g of Select Agar (Sigma# A5054), 6.7 g of Yeast nitrogen base without amino acids (Sigma #Y0626), 1.92 g of Yeast synthetic drop-out without uracil (Sigma #Y1501), glucose to 2%, 1 mM IPTG and 50 μg/mL of chloramphenicol. For “negative” selection media, the above media was supplemented with 75 μg/mL or 25 μg/mL of 5FC and 1 μg/mL of uracil. For “positive” selection media, supplementation was with 25 μg/mL of cytosine, 1 mM arabinose and 100 μg/mL of ampicillin Each Bio-Assay dish contained 250 mL of selection media and each standard Petri dish contained 25 mL of media.
The selection scheme was developed to isolate library members whose CD activity is “off” in the absence of HIF-1a but “on” in the presence of HIF-1a. […] A GST-HIF-1a fusion was created that is under the control of the arabinose promoter on a plasmid that can coexist with the pDIM-C8 library plasmids. This “HIF-1a plasmid” is a variation of the pGEX plasmid and has ampicillin resistance. During selections, this HIF-1a plasmid will either be present to produce HIF-1a and activate the hybrid protein switches, or absent to avoid any production of HIF-1a.
During the negative selection, no HIF-1a plasmid was present in the cells. Thus, hybrids that are active in the absence of HIF-1a will convert the 5FC into 5FU and kill the cell. But, hybrids that are not active in the absence of HIF-1a will be able to use the minimal amount of uracil provided and grow to form colonies. The negative selection was performed twice in succession using the Bio-Assay dish size plates (2 plates each time with about 600,000 cells plated on each plate). The first time the negative selection media contained 75 μg/mL 5FC. The colonies that grew on this plated were recovered and then underwent a second negative selection to help ensure that any pDIM-C8 plasmids encoding a wild-type yCD were removed from the library. The second negative selection was performed the same as the first except that 25 μg/mL of 5FC was used. The cells that survived the second negative selection were harvested and then aliquoted. One aliquot was used to isolate library plasmids that were used in the positive selection that followed.
This experiment confirmed that the switch genes conferred sensitivity to 5FC depends on induction of expression of HIF1-a (see Table 2, below).
Cells harboring the switch genes in pDIM-C8 or cells with the same plasmid together with the HIF1-a plasmid were plated on minimal media plates supplemented with 5FC (i.e. the negative selection conditions). […]

E. coli cells = assay: MIC of ampicillin for E. coli cells expressing switch, with and without maltose; format: cell-based; settings: E. coli cells expressing MBP or BLA separately

Sequence of HIF-1a (Q16665 786-826 limits assumed): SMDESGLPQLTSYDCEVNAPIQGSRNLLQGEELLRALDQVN
Sequence of HIF-1a (Q09472 331-417 partner limits assumed): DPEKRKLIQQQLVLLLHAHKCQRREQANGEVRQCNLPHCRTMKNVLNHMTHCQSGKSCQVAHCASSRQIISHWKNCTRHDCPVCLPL

CH1 domain: CH1 domain of p300, 100 amino acids, binds HIF-1a
Kd (HIF-1a; in vitro at 25° C., read-out: dissociation constant of the CH1 domain and HIF-1a): ~120 nM
Kd (HIF-1a; minimal domains CH1 and C-TAD of HIF-1a, read-out: Kd): 120 nM

OC[C@H]1O[C@@H]2O[C@H]3[C@H](O)[C@@H](O)[C@@H](O[C@H]4[C@H](O)[C@@H](O)[C@@H](O[C@H]5[C@H](O)[C@@H](O)[C@@H](O[C@H]6[C@H](O)[C@@H](O)[C@@H](O[C@H]7[C@H](O)[C@@H](O)[C@@H](O[C@H]8[C@H](O)[C@@H](O)[C@@H](O[C@H]1[C@H](O)[C@H]2O)O[C@@H]8CO)O[C@@H]7CO)O[C@@H]6CO)O[C@@H]5CO)O[C@@H]4CO)O[C@@H]3CO [beta-cylcodextrin, beta-cyclodextrin]
Effect on maltose activation of the switch (MBP317-347): antagonist preventing maltose-activation

B1: yCD: yeast cytosine deaminase containing the A23L/V108I/I140L mutations; positive control (protein, UniProt Q12178 1-158, looked up, variant A23L V108I I140L)
Cytosine deaminase: MVTGGMASKWDQKGMDIAYEEALLGYKEGGVPIGGCLINNKDGSVLGRGHNMRFQKGSATLHGEISTLENCGRLEGKVYKDTTLYTTLSPCDMCTGAIIMYGIPRCVIGENVNFKSKGEKYLQTRGHEVVVVDDERCKKLMKQFIDERPQDWFEDIGE
Growth on "negative selection" minimal plates supplemented with 75 μg/ml 5FC (GIA39 E. coli cells; w/ HIF1-a plasmid, 1 mM arabinose): −
Growth on "negative selection" minimal plates supplemented with 75 μg/ml 5FC (GIA39 E. coli cells; w/ HIF1-a plasmid, No arabinose): −
Growth on "negative selection" minimal plates supplemented with 75 μg/ml 5FC (GIA39 E. coli cells; w/o HIF1-a plasmid, 1 mM arabinose): −
Growth on "negative selection" minimal plates supplemented with 75 μg/ml 5FC (GIA39 E. coli cells; w/o HIF1-a plasmid, No arabinose): −

B2: BLA: the enzyme TEM-1 beta-lactamase (protein, UniProt P62593 24-286, looked up)
Beta-lactamase TEM: HPETLVKVKDAEDQLGARVGYIELDLNSGKILESFRPEERFPMMSTFKVLLCGAVLSRVDAGQEQLGRRIHYSQNDLVEYSPVTEKHLTDGMTVRELCSAAITMSDNTAANLLLTTIGGPKELTAFLHNMGDHVTRLDRWEPELNEAIPNDERDTTMPAAMATTLRKLLTGELLTLASRQQLIDWMEADKVAGPLLRSALPAGWFIADKSGAGERGSRGIIAALGPDGKPSRIVVIYTTGSQATMDERNRQIAEIGASLIKHW
Effect of maltose on MIC of ampicillin (E. coli cells): not affect by maltose

From US9469841B2, “Prodrug activation in cancer cells using molecular switches” (The Johns Hopkins University, priority 2008, dated 2016)
